In paper PMC4507770:

Biological target: GST–XJTGB3 fusion protein (BSMV Xinjiang strain TGB3) (barley stripe mosaic virus, Xinjiang strain)
Assay: pull-down

XJTGB1_(T395A/T401A) double mutant, C-terminal His-tagged (natural protein)
TGB3 protein-binding efficiency compared with wt XJTGB1: 40%
percent less effective binding than wt XJTGB1: 40 % less
